The source of these data is patent US20050059132A1.

The target in data set [1] is APC mutant QGNSEDY (ALL) (human) (UniProt P04070). Nature of the data set: cell-based or functional assay.
Data set [2] has as its target human wild-type activated protein C (human) (UniProt P04070). Nature of the data set: cell-based or functional assay.
Data set [3] addresses R506Q FVa (FVa Leiden, activated FV:Q506), P12259.
The target in data set [4] is human plasma factor Va (normal, wild-type), P12259.
Chain of human plasma factor Va (normal, wild-type), P12259 (P12259 29-2224): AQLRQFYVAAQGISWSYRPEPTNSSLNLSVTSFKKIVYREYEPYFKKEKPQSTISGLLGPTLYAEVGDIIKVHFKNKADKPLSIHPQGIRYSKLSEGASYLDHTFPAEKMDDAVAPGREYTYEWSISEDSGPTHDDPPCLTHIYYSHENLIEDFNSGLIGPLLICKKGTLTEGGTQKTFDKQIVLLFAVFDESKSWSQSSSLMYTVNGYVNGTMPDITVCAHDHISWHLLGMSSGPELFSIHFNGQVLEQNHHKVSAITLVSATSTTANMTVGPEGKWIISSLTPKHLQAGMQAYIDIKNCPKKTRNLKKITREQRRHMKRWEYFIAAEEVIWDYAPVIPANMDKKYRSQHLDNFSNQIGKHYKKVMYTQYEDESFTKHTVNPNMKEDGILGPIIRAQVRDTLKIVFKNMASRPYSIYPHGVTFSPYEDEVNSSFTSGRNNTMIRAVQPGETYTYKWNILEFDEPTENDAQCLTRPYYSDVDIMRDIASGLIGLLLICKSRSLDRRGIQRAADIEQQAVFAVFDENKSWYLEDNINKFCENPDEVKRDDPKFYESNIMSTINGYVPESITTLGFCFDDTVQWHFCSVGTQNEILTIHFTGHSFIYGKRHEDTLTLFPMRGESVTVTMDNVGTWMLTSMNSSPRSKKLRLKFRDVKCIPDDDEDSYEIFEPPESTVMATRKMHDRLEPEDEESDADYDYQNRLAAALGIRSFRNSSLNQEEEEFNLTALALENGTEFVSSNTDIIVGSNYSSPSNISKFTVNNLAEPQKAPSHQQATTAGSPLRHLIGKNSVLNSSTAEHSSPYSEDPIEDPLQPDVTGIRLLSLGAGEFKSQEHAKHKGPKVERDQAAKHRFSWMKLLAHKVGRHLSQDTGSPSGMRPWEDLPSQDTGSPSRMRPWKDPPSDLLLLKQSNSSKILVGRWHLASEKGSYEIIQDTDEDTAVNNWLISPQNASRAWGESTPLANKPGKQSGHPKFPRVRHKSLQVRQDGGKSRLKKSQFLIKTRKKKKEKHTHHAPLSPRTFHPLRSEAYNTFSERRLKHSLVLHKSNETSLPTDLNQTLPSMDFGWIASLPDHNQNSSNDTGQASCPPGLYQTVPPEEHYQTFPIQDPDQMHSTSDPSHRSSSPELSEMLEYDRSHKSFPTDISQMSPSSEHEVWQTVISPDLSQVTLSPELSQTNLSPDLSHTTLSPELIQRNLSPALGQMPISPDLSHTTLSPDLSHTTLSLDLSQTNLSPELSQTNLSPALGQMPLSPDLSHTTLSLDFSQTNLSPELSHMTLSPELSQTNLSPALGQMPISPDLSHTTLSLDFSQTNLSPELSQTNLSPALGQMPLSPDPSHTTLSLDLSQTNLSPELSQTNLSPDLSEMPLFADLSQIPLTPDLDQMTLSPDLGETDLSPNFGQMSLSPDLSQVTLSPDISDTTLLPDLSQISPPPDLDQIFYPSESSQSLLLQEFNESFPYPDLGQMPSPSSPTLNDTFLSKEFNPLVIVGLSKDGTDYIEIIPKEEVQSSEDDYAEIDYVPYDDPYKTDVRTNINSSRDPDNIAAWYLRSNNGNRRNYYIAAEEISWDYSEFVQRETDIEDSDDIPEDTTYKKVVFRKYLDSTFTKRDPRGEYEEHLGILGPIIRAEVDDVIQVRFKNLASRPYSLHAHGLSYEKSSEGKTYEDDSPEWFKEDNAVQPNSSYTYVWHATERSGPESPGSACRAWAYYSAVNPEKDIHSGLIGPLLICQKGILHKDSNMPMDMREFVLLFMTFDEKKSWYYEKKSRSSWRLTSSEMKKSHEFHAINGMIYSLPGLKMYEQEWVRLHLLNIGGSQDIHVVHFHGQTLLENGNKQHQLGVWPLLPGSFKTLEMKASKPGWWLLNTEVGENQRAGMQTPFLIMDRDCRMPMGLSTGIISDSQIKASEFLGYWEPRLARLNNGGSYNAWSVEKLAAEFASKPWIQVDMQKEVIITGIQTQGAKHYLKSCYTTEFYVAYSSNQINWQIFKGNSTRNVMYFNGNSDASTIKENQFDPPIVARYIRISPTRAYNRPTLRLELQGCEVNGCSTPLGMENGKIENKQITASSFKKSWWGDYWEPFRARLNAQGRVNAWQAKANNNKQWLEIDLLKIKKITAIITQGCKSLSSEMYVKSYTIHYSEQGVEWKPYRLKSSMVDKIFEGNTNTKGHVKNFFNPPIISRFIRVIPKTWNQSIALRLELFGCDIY

Chain of R506Q FVa (FVa Leiden, activated FV:Q506), P12259 (P12259 29-2224 R534Q): as the sequence (P12259 29-2224) above, with R506Q counted along it

In data set [1], “human protein S (from UniProt P07225 42-676)” yielded an APTT clotting time in protein S deficient plasma with 20 nM APC, in absence of protein S of 160 s and an APTT clotting time in protein S deficient plasma with 20 nM APC, with protein S added of 350 s. In data set [2], this molecule had an APTT clotting time in protein S deficient plasma with 20 nM APC, at the highest protein S concentration of 150 s and an APTT clotting time in protein S deficient plasma with 20 nM APC, in absence of protein S of 100 s.

B1: human wild-type activated protein C (protein)
chain 1: ANSFLEELRHSSLERECIEEICDFEEAKEIFQNVDDTLAFWSKHVDGDQCLVLPLEHPCASLCCGHGTCIDGIGSFSCDCRSGWEGRFCQREVSFLNCSLDNGGCTHYCLEEVGWRRCSCAPGYKLGDDLLQCHPAVKFPCGRPWKRMEKKRSHL
chain 2: LIDGKMTRRGDSPWQVVLLDSKKKLACGAVLIHPSWVLTAAHCMDESKKLLVRLGEYDLRRWEKWELDLDIKEVFVHPNYSKSTTDNDIALLHLAQPATLSQTIVPICLPDSGLAERELNQAGQETLVTGWGYHSSREKEAKRNRTFVLNFIKIPVVPHNECSEVMSNMVSENMLCAGILGDRQDACEGDSGGPMVASFHGTWFLVGLVSWGEGCGLLHNYGVYTKVSRYLDWIHGHIRDKEAPQKSWAP
Consider B1, for which, in data set [3], the “remaining FVa activity over time on incubation with 0.4 nM APC” value is “a slow decrease in FVa activity”. In addition, the “loss of FVa activity over time (FXa-mediated prothrombin activation assay) on incubation of 0.76 nM FVa with 0.39 nM APC” value in data set [4] is “the initial rapid loss of FVa activity that is observed during the first 5 minutes of incubation”.
